This experiment has as its target AdeB from Acinetobacter baumannii (RND transporter subunit of the AdeABC efflux pump) (Acinetobacter baumannii AYE). Kind of experiment: native gel or EMSA + other: negative stain electron microscopy; AdeB reconstituted into Salipro Nanodiscs.

Among the data in publication PMC8617272 are stoichiometry N values, retold here.

On to “AdeB from Acinetobacter baumannii (RND transporter subunit of the AdeABC efflux pump) (natural protein)”, for which the stoichiometry N turned out to be 3.
